Reference: patent US12356911B2, “Group of UDP-glycosyltransferase for catalyzing carbohydrate chain elongation and application thereof” (GSYNBIOT (SHANGHAI) CO., LTD, priority 2017, dated 2025)

How the values were obtained:
Format in all cases: biochemical
[1] = In vitro transglycosylation at C-3, F2 as glycosyl acceptor, UDP-glucose as donor; settings: crude enzyme (E. coli lysate supernatant)
[2] = In vitro transglycosylation at C-3, Rh2 as glycosyl acceptor, UDP-glucose as donor; settings: crude enzyme (E. coli lysate supernatant); TLC, FIG. 13, FIG. 15
From the text: (§1) Cell lysate of recombinant E. coli with empty vector pET28a was used as a control.

[3] = In vitro transglycosylation at C-6, Rg1 as glycosyl acceptor, UDP-xylose as donor; settings: crude enzyme (E. coli lysate supernatant); TLC and HPLC, FIG. 7-9
[4] = In vitro transglycosylation at C-20, Rd as glycosyl acceptor, UDP-xylose as donor; settings: crude enzyme (E. coli lysate supernatant); TLC and HPLC, FIG. 2, FIG. 4
[5] = In vitro transglycosylation at C-20, CK as glycosyl acceptor, UDP-glucose as donor; settings: crude enzyme (E. coli lysate supernatant); TLC/HPLC, FIG. 2, 3, 12, 16
From the text: as §1
As shown in FIG. 16: Protopanaxadiol Ginsenoside CK is used as a glycosyl acceptor, and UDP-glucose is used as a glycosyl donor.

[6] = In vitro transglycosylation at C-20, F1 as glycosyl acceptor, UDP-glucose as donor; settings: crude enzyme (E. coli lysate supernatant); TLC and HPLC, FIG. 5, FIG. 6
[7] = In vitro transglycosylation at C-20, Rd as glycosyl acceptor, UDP-glucose as donor; settings: crude enzyme (E. coli lysate supernatant); TLC/HPLC, FIG. 2, 3, 11
From the text: as §1

[8] = In vitro transglycosylation at C-20, CK as glycosyl acceptor, UDP-arabinose as donor; settings: crude enzyme (E. coli lysate supernatant); TLC, FIG. 17

B1: GT29-24: Ginseng UDP-glycosyltransferase, 446 amino acids, SEQ ID NO: 28 (protein)
chain: MDNQKGRISIVMLPFLAHGHISPFFELAKHLSKRNCNIFLCSTPINLSSIKNRISDKDSSASIKLVELHLPSSPDLPPHYHTTNGLPSHLMVPLRNAFETAAPTFSEILKTLNPDLLIYDFNPSWAPEIASSHNIPAVCFIIGGAASFSMSLHSFKNPGEKYPFLDFDDNSNITPEPPSADNMKLLLDFMTCFERSCDIILIKSFRELEGKYFDFYSTLSDKTLVPVGPLVQDPMGHNEDPKTEQFINWLDKRAESTVVFVCFGSEYFLSNEELEEVAIGLEISMVNFIWAVRLIEGEKKGVLPEGFVQRVGDRGLVVEGWAPQARILGHSSTGGFVSHCGWSSITESMKFGVPVIAMARHFDQPLNAKLAAEVGVGMEVVRDENGKYKREGIAEVIRKVVVEKSGEVMRRKARELSEKMKEKGEEEIDRAVEELVQICKKKKDAQ
modifications: misc_feature - GT29-24; Panax ginseng
With B1 the “product formation from F2 and UDP-glucose (Rd)” value [1] was “can further catalyze the extension of a glucosyl at the C-3 glycosyl of F2 to produce ginsenoside Rd”, the “product formation from Rh2 and UDP-glucose (Rg3)” value [2] was “catalyze the production of ginsenoside Rg3” and the “product formation from Rg1 and UDP-xylose (notoginsenoside R1)” value [3] was “can catalyze the formation of Notoginsenoside RI”.

B2: GT29-32: Ginseng UDP-glycosyltransferase, 442 amino acids, SEQ ID NO: 4 (protein)
chain: MDNQEGRISIALLPFLAHGHISPFFELAKQLAKRNCNVFLCSTPINLSSIKNKDSSASIKLVELHLPSSPDLPPHYHTTNGLPSHLMVPLRNAFETAAPTFSEILKTLNPDLLIYDFNPSWAPEIASSHNIPAVYFLTSAAATSSMGLHAFKNSGEKYPFPDFYDNSNITPEPPSADKMKLFHDFVACFKRSCDIILIKSFRELEGKYIDFLSTLSKKTLVPVGPLVQDPMGHDEDPKTGHLINWLDKRAESTVVFVCFGSEYFPSNEELEELAIGLEISMVSFILAVRFPEGEKKGILPEGFVQRVGDRGLVVEGWAPQARILGHSSTGGFVSHCGWSSIMESVKFGVPVIAMARHLDQPLNAKLAAEVGVGMEVMRDENGKYKREAIAEVIRKVVMEKNGEVMRRKARELSEKMKEIGEQLIDRAVEELVQICKKKKDEQ
modifications: misc_feature - GT29-32; Panax ginseng
With B2 the “product formation from Rd and UDP-xylose (one product with the mobility of Rb3)” value [4] was “can catalyze Rd to produce three products”, the “product formation from CK and UDP-glucose (Gypenoside LXXV)” value [5] was “can catalyze the formation of a new product” and the “product formation from F1 and UDP-glucose” value [6] was “can catalyze the formation of a new product”. The “product formation from Rd and UDP-glucose (Rb1)” value [7] was “can catalyze the formation of Rb1” and the “product formation from CK and UDP-arabinose (Ginsenoside F3)” value [8] was “can catalyze the first glycosyl of C-20 of CK to extend an arabinosyl to generate Ginsenoside F3”.
